{"source": "patent US20260167699A1", "about": "(Chugai, published 2026)"}
{"target": "T1, FcγRIIIa (human, UniProt P08637 17-208)", "T1 construct": "extracellular domain; also called 3a; FcγRIIIa extracellular domain", "T1 sequence (P08637 other isoform, or with tags, fused parts or gaps)": "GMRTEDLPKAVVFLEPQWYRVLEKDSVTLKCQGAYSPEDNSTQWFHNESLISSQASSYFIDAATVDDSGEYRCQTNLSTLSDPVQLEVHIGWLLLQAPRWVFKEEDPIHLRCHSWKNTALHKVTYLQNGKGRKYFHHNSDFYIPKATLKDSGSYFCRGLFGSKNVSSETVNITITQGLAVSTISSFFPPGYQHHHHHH", "test": "SPR (Biacore);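 further: antibody variants captured on an SPR sensor chip, with FcγRIIIa passed over as analyte in HBS-EP+ buffer at 25 °C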"}
{"binder": "GpH7-A5/GpH7-B3 variant S337_08L/GpL16-k0 (antibody, human IgG1, kappa, copies: 1 + 1 + 2) heavy 1: not shown heavy 2: not shown light: DIVMTQSPLSLPVTPGEPASISCQASESLVHSNRNTYLHWYLQKPGQSPQLLIYKVSNRFSGVPDRFSGSGSGTDFTLKISRVEAEDVGVYYCSQNTHVPPTFGQGTKVEIERTVAAPSVFIFPPSDEQLKSGTASVVCLLNNFYPREAKVQWKVDNALQSGNSQESVTEQDSKDSTYSLSSTLTLSKADYEKHKVYACEVTHQGLSSPVTKSFNRGEC", "He/Con 3a": "90.2 % of GpH7-A5/GpH7-B3/GpL16-k0"}
{"binder": "GpH7-A5/GpH7-B3 variant T335_03V/GpL16-k0 (antibody, human IgG1, kappa, copies: 1 + 1 + 2) heavy 1: not shown heavy 2: not shown light: DIVMTQSPLSLPVTPGEPASISCQASESLVHSNRNTYLHWYLQKPGQSPQLLIYKVSNRFSGVPDRFSGSGSGTDFTLKISRVEAEDVGVYYCSQNTHVPPTFGQGTKVEIERTVAAPSVFIFPPSDEQLKSGTASVVCLLNNFYPREAKVQWKVDNALQSGNSQESVTEQDSKDSTYSLSSTLTLSKADYEKHKVYACEVTHQGLSSPVTKSFNRGEC", "He/Con 3a": "96.3 % of GpH7-A5/GpH7-B3/GpL16-k0"}
{"binder": "GpH7-A5/GpH7-B3 variant S337_03V/GpL16-k0 (antibody, human IgG1, kappa, copies: 1 + 1 + 2) heavy 1: not shown heavy 2: not shown light: DIVMTQSPLSLPVTPGEPASISCQASESLVHSNRNTYLHWYLQKPGQSPQLLIYKVSNRFSGVPDRFSGSGSGTDFTLKISRVEAEDVGVYYCSQNTHVPPTFGQGTKVEIERTVAAPSVFIFPPSDEQLKSGTASVVCLLNNFYPREAKVQWKVDNALQSGNSQESVTEQDSKDSTYSLSSTLTLSKADYEKHKVYACEVTHQGLSSPVTKSFNRGEC", "He/Con 3a": "87.1 % of GpH7-A5/GpH7-B3/GpL16-k0"}
{"binder": "GpH7-A5/GpH7-B3 variant T335_02A/GpL16-k0 (antibody, human IgG1, kappa, copies: 1 + 1 + 2) heavy 1: not shown heavy 2: not shown light: DIVMTQSPLSLPVTPGEPASISCQASESLVHSNRNTYLHWYLQKPGQSPQLLIYKVSNRFSGVPDRFSGSGSGTDFTLKISRVEAEDVGVYYCSQNTHVPPTFGQGTKVEIERTVAAPSVFIFPPSDEQLKSGTASVVCLLNNFYPREAKVQWKVDNALQSGNSQESVTEQDSKDSTYSLSSTLTLSKADYEKHKVYACEVTHQGLSSPVTKSFNRGEC", "He/Con 3a": "90.9 % of GpH7-A5/GpH7-B3/GpL16-k0"}
{"binder": "GpH7-A5/GpH7-B3 variant S337_10E/GpL16-k0 (antibody, human IgG1, kappa, copies: 1 + 1 + 2) heavy 1: not shown heavy 2: not shown light: DIVMTQSPLSLPVTPGEPASISCQASESLVHSNRNTYLHWYLQKPGQSPQLLIYKVSNRFSGVPDRFSGSGSGTDFTLKISRVEAEDVGVYYCSQNTHVPPTFGQGTKVEIERTVAAPSVFIFPPSDEQLKSGTASVVCLLNNFYPREAKVQWKVDNALQSGNSQESVTEQDSKDSTYSLSSTLTLSKADYEKHKVYACEVTHQGLSSPVTKSFNRGEC", "He/Con 3a": "97.8 % of GpH7-A5/GpH7-B3/GpL16-k0"}
{"binder": "GpH7-A5/GpH7-B3 variant S337_19Q/GpL16-k0 (antibody, human IgG1, kappa, copies: 1 + 1 + 2) heavy 1: not shown heavy 2: not shown light: DIVMTQSPLSLPVTPGEPASISCQASESLVHSNRNTYLHWYLQKPGQSPQLLIYKVSNRFSGVPDRFSGSGSGTDFTLKISRVEAEDVGVYYCSQNTHVPPTFGQGTKVEIERTVAAPSVFIFPPSDEQLKSGTASVVCLLNNFYPREAKVQWKVDNALQSGNSQESVTEQDSKDSTYSLSSTLTLSKADYEKHKVYACEVTHQGLSSPVTKSFNRGEC", "He/Con 3a": "91.2 % of GpH7-A5/GpH7-B3/GpL16-k0"}
{"binder": "GpH7-A5/GpH7-B3 variant T335_04F/GpL16-k0 (antibody, human IgG1, kappa, copies: 1 + 1 + 2) heavy 1: not shown heavy 2: not shown light: DIVMTQSPLSLPVTPGEPASISCQASESLVHSNRNTYLHWYLQKPGQSPQLLIYKVSNRFSGVPDRFSGSGSGTDFTLKISRVEAEDVGVYYCSQNTHVPPTFGQGTKVEIERTVAAPSVFIFPPSDEQLKSGTASVVCLLNNFYPREAKVQWKVDNALQSGNSQESVTEQDSKDSTYSLSSTLTLSKADYEKHKVYACEVTHQGLSSPVTKSFNRGEC", "He/Con 3a": "91.7 % of GpH7-A5/GpH7-B3/GpL16-k0"}
{"binder": "GpH7-A5/GpH7-B3 variant S337_11K/GpL16-k0 (antibody, human IgG1, kappa, copies: 1 + 1 + 2) heavy 1: not shown heavy 2: not shown light: DIVMTQSPLSLPVTPGEPASISCQASESLVHSNRNTYLHWYLQKPGQSPQLLIYKVSNRFSGVPDRFSGSGSGTDFTLKISRVEAEDVGVYYCSQNTHVPPTFGQGTKVEIERTVAAPSVFIFPPSDEQLKSGTASVVCLLNNFYPREAKVQWKVDNALQSGNSQESVTEQDSKDSTYSLSSTLTLSKADYEKHKVYACEVTHQGLSSPVTKSFNRGEC", "He/Con 3a": "80.1 % of GpH7-A5/GpH7-B3/GpL16-k0"}
{"binder": "GpH7-A5/GpH7-B3 variant S337_18N/GpL16-k0 (antibody, human IgG1, kappa, copies: 1 + 1 + 2) heavy 1: not shown heavy 2: not shown light: DIVMTQSPLSLPVTPGEPASISCQASESLVHSNRNTYLHWYLQKPGQSPQLLIYKVSNRFSGVPDRFSGSGSGTDFTLKISRVEAEDVGVYYCSQNTHVPPTFGQGTKVEIERTVAAPSVFIFPPSDEQLKSGTASVVCLLNNFYPREAKVQWKVDNALQSGNSQESVTEQDSKDSTYSLSSTLTLSKADYEKHKVYACEVTHQGLSSPVTKSFNRGEC", "He/Con 3a": "96.9 % of GpH7-A5/GpH7-B3/GpL16-k0"}
{"binder": "GpH7-A5/GpH7-B3 variant S337_16H/GpL16-k0 (antibody, human IgG1, kappa, copies: 1 + 1 + 2) heavy 1: not shown heavy 2: not shown light: DIVMTQSPLSLPVTPGEPASISCQASESLVHSNRNTYLHWYLQKPGQSPQLLIYKVSNRFSGVPDRFSGSGSGTDFTLKISRVEAEDVGVYYCSQNTHVPPTFGQGTKVEIERTVAAPSVFIFPPSDEQLKSGTASVVCLLNNFYPREAKVQWKVDNALQSGNSQESVTEQDSKDSTYSLSSTLTLSKADYEKHKVYACEVTHQGLSSPVTKSFNRGEC", "He/Con 3a": "100 % of GpH7-A5/GpH7-B3/GpL16-k0"}
{"binder": "GpH7-A5/GpH7-B3 variant S337_06M/GpL16-k0 (antibody, human IgG1, kappa, copies: 1 + 1 + 2) heavy 1: not shown heavy 2: not shown light: DIVMTQSPLSLPVTPGEPASISCQASESLVHSNRNTYLHWYLQKPGQSPQLLIYKVSNRFSGVPDRFSGSGSGTDFTLKISRVEAEDVGVYYCSQNTHVPPTFGQGTKVEIERTVAAPSVFIFPPSDEQLKSGTASVVCLLNNFYPREAKVQWKVDNALQSGNSQESVTEQDSKDSTYSLSSTLTLSKADYEKHKVYACEVTHQGLSSPVTKSFNRGEC", "He/Con 3a": "89.7 % of GpH7-A5/GpH7-B3/GpL16-k0"}
{"binder": "GpH7-A5/GpH7-B3 variant S337_09D/GpL16-k0 (antibody, human IgG1, kappa, copies: 1 + 1 + 2) heavy 1: not shown heavy 2: not shown light: DIVMTQSPLSLPVTPGEPASISCQASESLVHSNRNTYLHWYLQKPGQSPQLLIYKVSNRFSGVPDRFSGSGSGTDFTLKISRVEAEDVGVYYCSQNTHVPPTFGQGTKVEIERTVAAPSVFIFPPSDEQLKSGTASVVCLLNNFYPREAKVQWKVDNALQSGNSQESVTEQDSKDSTYSLSSTLTLSKADYEKHKVYACEVTHQGLSSPVTKSFNRGEC", "He/Con 3a": "102 % of GpH7-A5/GpH7-B3/GpL16-k0"}
